Experimental data as given in IntAct's records for PubMed 35512704.

B1: Speckle-type POZ protein (Homo sapiens), O43791 (parent)
chain: MSRVPSPPPPAEMSSGPVAESWCYTQIKVVKFSYMWTINNFSFCREEMGEVIKSSTFSSGANDKLKWCLRVNPKGLDEESKDYLSLYLLLVSCPKSEVRAKFKFSILNAKGEETKAMESQRAYRFVQGKDWGFKKFIRRDFLLDEANGLLPDDKLTLFCEVSVVQDSVNISGQNTMNMVKVPECRLADELGGLWENSRFTDCCLCVAGQEFQAHKAILAARSPVFSAMFEHEMEESKKNRVEINDVEPEVFKEMMCFIYTGKAPNLDKMADDLLAAADKYALERLKVMCEDALCSNLSVENAAEILILADLHSADQLKTQAVDFINYHASDVLETSGWKSMVVSHPHLVAEAYRSLASAQCPFLGPPRKRLKQS

Variants of: B1
Details: with dll3_human DLL3, Q9NYJ7

Variant | effect of a mutation on the interaction
F102C | with no effect

Variants of: B1
Details: with duox2_human DUOX2, Q9NRD8

Variant | effect of a mutation on the interaction
F102C | with no effect

Variants of: B1
Details: with e2f2_human E2F2, Q14209

Variant | effect of a mutation on the interaction
F102C | with no effect

Variants of: B1
Details: with e2f3_human E2F3, O00716

Variant | effect of a mutation on the interaction
F102C | with no effect

Variants of: B1
Details: with e2f5_human E2F5, Q15329

Variant | effect of a mutation on the interaction
F102C | with no effect

Variants of: B1
Details: with e2f6_human E2F6, O75461
e2f6_human E2F6, O75461, sequence (O75461 whole entry): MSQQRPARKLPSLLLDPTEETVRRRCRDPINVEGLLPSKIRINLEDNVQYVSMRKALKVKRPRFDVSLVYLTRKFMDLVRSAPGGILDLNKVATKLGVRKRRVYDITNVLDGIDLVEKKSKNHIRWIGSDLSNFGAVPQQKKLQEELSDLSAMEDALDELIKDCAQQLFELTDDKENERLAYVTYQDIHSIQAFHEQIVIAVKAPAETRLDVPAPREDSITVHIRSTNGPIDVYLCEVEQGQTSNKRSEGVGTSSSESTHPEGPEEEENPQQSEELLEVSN

Variant | effect of a mutation on the interaction
F102C | with no effect

Variants of: B1
Details: with e2f8_human E2F8, A0AVK6

Variant | effect of a mutation on the interaction
F102C | with no effect

Variants of: B1
Details: with if4e_human EIF4E

Variant | effect of a mutation on the interaction
F102C | with no effect

Variants of: B1
Details: with epha7_human EPHA7, Q15375

Variant | effect of a mutation on the interaction
F102C | with no effect

Variants of: B1
Details: with ephb1_human EPHB1, P54762

Variant | effect of a mutation on the interaction
F102C | with no effect

Variants of: B1
Details: with erbb3_human ERBB3, P21860

Variant | effect of a mutation on the interaction
F102C | with no effect

Variants of: B1
Details: with erbb4_human ERBB4, Q15303

Variant | effect of a mutation on the interaction
F102C | with no effect

Variants of: B1
Details: with esr1_human ESR1, P03372

Variant | effect of a mutation on the interaction
F102C | with no effect

Variants of: B1
Details: with etv1_human ETV1, P50549
etv1_human ETV1, P50549, sequence (P50549 whole entry): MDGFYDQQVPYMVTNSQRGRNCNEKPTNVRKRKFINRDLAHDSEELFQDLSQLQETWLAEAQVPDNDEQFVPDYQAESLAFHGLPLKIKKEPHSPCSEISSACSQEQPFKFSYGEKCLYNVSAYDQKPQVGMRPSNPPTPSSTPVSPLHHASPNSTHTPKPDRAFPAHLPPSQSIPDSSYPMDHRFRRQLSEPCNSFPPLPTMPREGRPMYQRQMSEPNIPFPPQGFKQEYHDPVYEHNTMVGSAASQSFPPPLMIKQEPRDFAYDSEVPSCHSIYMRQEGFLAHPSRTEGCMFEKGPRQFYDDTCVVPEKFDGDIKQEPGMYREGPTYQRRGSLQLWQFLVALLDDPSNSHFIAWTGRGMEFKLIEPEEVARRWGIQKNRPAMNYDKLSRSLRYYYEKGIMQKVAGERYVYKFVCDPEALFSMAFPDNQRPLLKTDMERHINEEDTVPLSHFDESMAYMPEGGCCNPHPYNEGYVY

Variant | effect of a mutation on the interaction
F102C | with no effect

Variants of: B1
Details: with ezh1_human EZH1, Q92800

Variant | effect of a mutation on the interaction
F102C | with no effect

Variants of: B1
Details: with ezh2_human EZH2, Q15910
ezh2_human EZH2, Q15910, sequence (Q15910 whole entry, looked up): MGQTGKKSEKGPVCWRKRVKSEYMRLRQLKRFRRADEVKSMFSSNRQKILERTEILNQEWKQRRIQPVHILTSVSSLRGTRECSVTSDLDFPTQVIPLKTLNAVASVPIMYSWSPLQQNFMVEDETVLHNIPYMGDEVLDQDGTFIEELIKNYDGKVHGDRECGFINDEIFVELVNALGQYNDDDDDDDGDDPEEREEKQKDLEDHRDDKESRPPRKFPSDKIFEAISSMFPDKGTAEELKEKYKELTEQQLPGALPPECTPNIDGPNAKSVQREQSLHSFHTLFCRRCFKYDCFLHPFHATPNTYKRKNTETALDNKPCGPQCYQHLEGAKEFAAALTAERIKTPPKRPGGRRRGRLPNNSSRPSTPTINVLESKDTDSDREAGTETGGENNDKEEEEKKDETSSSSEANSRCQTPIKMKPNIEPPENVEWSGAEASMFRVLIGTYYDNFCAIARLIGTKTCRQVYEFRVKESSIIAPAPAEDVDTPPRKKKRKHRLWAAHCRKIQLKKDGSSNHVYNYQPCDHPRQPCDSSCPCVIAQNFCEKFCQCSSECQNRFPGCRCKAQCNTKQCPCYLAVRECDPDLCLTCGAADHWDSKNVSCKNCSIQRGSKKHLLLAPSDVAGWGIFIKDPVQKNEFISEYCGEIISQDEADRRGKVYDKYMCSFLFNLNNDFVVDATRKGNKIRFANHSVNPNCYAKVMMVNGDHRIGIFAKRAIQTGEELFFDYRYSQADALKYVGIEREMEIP

Variant | effect of a mutation on the interaction
F102C | with no effect

Variants of: B1
Details: with facd2_human FANCD2, Q9BXW9

Variant | effect of a mutation on the interaction
F102C | with no effect

Variants of: B1
Details: with fgf19_human FGF19, O95750
fgf19_human FGF19, O95750, sequence (O95750 whole entry): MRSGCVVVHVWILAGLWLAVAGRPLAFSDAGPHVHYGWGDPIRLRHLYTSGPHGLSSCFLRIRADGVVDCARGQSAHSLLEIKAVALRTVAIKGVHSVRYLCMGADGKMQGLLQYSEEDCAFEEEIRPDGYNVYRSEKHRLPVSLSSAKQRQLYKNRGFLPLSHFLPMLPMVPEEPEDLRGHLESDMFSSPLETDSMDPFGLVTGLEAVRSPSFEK

Variant | effect of a mutation on the interaction
F102C | with no effect

Variants of: B1
Details: with fgfp1_human FGFBP1, Q14512

Variant | effect of a mutation on the interaction
F102C | with no effect

Variants of: B1
Details: with fgfr4_human FGFR4, P22455

Variant | effect of a mutation on the interaction
F102C | with no effect

Variants of: B1
Details: with fumh_human FH

Variant | effect of a mutation on the interaction
F102C | with no effect

Variants of: B1
Details: with fzr1_human FZR1, Q9UM11

Variant | effect of a mutation on the interaction
F102C | with no effect

Variants of: B1
Details: with gbra6_human GABRA6, Q16445

Variant | effect of a mutation on the interaction
F102C | with no effect

Variants of: B1
Details: with gata1_human GATA1, P15976
gata1_human GATA1, P15976, sequence (P15976 whole entry): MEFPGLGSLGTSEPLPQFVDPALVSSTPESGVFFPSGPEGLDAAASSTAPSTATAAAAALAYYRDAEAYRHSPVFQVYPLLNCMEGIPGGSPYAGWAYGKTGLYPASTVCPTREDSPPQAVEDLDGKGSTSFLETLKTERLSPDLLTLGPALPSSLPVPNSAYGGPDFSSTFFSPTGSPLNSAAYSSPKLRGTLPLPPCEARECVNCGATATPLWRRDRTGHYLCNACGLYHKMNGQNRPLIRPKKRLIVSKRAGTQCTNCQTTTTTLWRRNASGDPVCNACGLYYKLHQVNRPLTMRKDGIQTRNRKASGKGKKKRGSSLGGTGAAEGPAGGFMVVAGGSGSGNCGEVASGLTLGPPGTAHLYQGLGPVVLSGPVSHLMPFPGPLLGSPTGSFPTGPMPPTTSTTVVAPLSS

Variant | effect of a mutation on the interaction
F102C | with no effect

Variants of: B1
Details: with p66b_human GATAD2B

Variant | effect of a mutation on the interaction
F102C | with no effect

Variants of: B1
Details: with gna11_human GNA11, P29992

Variant | effect of a mutation on the interaction
F102C | with no effect

Variants of: B1
Details: with gna13_human GNA13, Q14344

Variant | effect of a mutation on the interaction
F102C | with no effect

Variants of: B1
Details: with gnaq_human GNAQ

Variant | effect of a mutation on the interaction
F102C | with no effect

Variants of: B1
Details: with grm1_human GRM1, Q13255
grm1_human GRM1, Q13255, sequence (Q13255 whole entry, looked up): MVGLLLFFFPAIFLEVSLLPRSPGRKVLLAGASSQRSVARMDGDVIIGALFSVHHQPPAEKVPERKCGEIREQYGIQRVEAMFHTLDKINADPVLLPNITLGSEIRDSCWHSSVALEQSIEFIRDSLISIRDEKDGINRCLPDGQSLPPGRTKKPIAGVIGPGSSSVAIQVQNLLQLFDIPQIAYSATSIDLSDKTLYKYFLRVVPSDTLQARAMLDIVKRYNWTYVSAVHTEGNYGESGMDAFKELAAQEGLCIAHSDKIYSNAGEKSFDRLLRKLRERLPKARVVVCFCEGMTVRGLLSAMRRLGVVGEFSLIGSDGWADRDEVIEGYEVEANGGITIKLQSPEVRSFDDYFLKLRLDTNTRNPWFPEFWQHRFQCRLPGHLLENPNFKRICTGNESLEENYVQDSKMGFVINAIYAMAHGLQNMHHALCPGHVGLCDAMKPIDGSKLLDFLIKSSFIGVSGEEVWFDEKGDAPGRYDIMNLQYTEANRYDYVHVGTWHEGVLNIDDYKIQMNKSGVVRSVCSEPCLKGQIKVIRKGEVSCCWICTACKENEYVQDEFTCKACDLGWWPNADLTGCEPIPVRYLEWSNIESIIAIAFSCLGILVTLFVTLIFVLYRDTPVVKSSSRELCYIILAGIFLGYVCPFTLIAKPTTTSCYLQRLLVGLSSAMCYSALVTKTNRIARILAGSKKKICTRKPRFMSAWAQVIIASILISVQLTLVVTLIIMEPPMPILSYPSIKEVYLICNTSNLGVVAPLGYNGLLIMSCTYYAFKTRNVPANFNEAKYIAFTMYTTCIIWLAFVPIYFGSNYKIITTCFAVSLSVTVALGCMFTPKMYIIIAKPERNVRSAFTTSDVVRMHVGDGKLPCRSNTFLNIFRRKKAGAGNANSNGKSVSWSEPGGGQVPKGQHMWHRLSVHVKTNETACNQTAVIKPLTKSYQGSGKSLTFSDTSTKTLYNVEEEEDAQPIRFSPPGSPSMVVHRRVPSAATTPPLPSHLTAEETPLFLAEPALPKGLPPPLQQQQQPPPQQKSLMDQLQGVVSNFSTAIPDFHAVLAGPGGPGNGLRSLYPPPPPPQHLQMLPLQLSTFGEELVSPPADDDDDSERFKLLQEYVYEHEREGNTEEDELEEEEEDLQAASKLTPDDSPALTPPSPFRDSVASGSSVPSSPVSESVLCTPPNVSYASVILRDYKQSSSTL

Variant | effect of a mutation on the interaction
F102C | with no effect

Variants of: B1
Details: with grm3_human GRM3, Q14832

Variant | effect of a mutation on the interaction
F102C | with no effect

Variants of: B1
Details: with gtpb4_human GTPBP4, Q9BZE4

Variant | effect of a mutation on the interaction
F102C | with no effect

Variants of: B1
Details: with h33_human H3-3A

Variant | effect of a mutation on the interaction
F102C | with no effect

Variants of: B1
Details: with hdac1_human HDAC1, Q13547
hdac1_human HDAC1, Q13547, sequence (Q13547 whole entry): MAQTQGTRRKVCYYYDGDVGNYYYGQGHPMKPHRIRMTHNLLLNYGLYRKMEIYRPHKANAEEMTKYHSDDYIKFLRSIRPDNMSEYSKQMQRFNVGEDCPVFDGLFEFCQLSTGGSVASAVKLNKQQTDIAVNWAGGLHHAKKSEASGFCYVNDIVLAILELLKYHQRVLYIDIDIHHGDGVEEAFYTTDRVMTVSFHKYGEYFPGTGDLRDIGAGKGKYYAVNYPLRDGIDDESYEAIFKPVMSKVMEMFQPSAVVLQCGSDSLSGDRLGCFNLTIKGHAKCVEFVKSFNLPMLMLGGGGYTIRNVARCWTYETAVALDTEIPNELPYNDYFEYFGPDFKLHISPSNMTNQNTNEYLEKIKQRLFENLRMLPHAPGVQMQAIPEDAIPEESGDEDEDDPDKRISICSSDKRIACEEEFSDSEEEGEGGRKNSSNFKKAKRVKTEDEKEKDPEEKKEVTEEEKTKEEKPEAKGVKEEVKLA

Variant | effect of a mutation on the interaction
F102C | with no effect

Variants of: B1
Details: with hdac3_human HDAC3, O15379

Variant | effect of a mutation on the interaction
F102C | with no effect

Variants of: B1
Details: with hgf_human HGF

Variant | effect of a mutation on the interaction
F102C | with no effect

Variants of: B1
Details: with h31_human H3C1, P68431

Variant | effect of a mutation on the interaction
F102C | with no effect

Variants of: B1
Details: with hlab_human HLA-B

Variant | effect of a mutation on the interaction
F102C | with no effect

Variants of: B1
Details: with il7ra_human IL7R

Variant | effect of a mutation on the interaction
F102C | with no effect

Variants of: B1
Details: with int12_human INTS12, Q96CB8

Variant | effect of a mutation on the interaction
F102C | with no effect

Variants of: B1
Details: with jak1_human JAK1, P23458
jak1_human JAK1, P23458, sequence (P23458 whole entry): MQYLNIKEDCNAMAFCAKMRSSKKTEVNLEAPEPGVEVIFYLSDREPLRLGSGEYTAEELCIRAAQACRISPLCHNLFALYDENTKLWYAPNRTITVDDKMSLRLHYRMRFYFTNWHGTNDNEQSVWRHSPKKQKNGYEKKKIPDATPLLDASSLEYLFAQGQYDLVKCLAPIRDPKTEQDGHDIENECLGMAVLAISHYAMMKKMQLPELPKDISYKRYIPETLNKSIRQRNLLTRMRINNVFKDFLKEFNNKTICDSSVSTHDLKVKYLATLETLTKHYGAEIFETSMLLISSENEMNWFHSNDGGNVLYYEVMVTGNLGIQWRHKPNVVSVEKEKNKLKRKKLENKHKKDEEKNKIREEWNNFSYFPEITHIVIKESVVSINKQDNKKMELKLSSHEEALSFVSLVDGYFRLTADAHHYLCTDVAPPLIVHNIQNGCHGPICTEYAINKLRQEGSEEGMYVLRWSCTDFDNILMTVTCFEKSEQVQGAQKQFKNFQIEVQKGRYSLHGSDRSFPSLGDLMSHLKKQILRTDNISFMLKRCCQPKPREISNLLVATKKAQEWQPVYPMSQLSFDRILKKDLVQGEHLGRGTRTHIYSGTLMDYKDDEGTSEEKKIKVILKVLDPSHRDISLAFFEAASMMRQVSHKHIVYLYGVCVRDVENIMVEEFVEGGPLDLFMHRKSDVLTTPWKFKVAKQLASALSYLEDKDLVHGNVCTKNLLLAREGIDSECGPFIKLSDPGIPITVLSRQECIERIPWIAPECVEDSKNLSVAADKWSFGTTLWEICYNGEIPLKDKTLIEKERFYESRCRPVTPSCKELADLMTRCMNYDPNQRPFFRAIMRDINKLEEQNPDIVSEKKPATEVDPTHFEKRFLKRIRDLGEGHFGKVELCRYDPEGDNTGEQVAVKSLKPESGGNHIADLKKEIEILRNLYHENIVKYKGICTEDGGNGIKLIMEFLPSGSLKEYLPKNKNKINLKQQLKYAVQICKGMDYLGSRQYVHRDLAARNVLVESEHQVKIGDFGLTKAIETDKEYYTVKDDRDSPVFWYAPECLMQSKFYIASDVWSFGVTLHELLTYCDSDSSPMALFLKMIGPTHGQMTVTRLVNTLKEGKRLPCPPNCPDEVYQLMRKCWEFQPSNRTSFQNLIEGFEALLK

Variant | effect of a mutation on the interaction
F102C | with no effect

Variants of: B1
Details: with jak3_human JAK3, P52333

Variant | effect of a mutation on the interaction
F102C | with no effect

Variants of: B1
Details: with kat2a_human KAT2A

Variant | effect of a mutation on the interaction
F102C | with no effect
